According to article PMC5095173, “Disulfide-activated protein kinase G Iα regulates cardiac diastolic relaxation and fine-tunes the Frank–Starling response” (Nature Communications, 2016):

B1: Micall1 pS307 (protein, UniProt D3ZQL6 1-855, looked up)
MICAL-like protein 1: MAGPRGALLAWCRRQCEGYRGVDIRDLSSSFRDGLAFCAILHRHRPDLLDFQSLSKENVFENNRLAFEVAEKELGIPALLDPNDMVSMSVPDCLSIMTYVSQYYNHFTSSGQAAASPPKPGKDPAAPSPTSTSPAVQPGEEAQGDDLSPDSLSEQGKPQPPSSACAACGQRVHLVQRYLAEGRLYHRHCFRCRQCSSTLVPGSYSSGPEEGTFVCAERCTRLGLGGRSGTRPLSLQKQQPAAAAEAKDGEDSDLSKSVVVVAAEADGLQASSEVQPHTLTKPPLPSKPQDLASPPVSRPTPAPRKASESSALTPPTPRPRSSLQQDGMVEQSVSGDLVNGRLQELPVPKPRGTPKLSERMTAPRKDPPWITLVQTEPKKKPAPLPPSSGPGPLSQASRQVENGGLEEKTQKSPAAEPEPKPYNPFEEEEEEEEASVPAVPSPAPAPPETTPKSLHPWYNITPTSSPKTKKRPAPKAPSASPLVLHASRLSHSEPPSATPSPALSVESLSSESSSHTANTEPSEPPAVPKSSSDPAVHVPGTPGTSANSVTPSAHSSLSSSGELGQPSGEQMPQARTRGSPGTHSTKPFSGATPTPFLLAGDQKSPAPPMGSSSPQMLIKSSCKENPFNRKPSPSTSPTVRKATKGAKPVRPPAPGHGFPLIKRKVQADQYIPEEDIYGEMDSIERQLDALEHSGVLLEEKLRGGANEGSEDDMLVDWFKLIHEKHLLVRRESELIYVFKQQNLEQRQADVEFELRCLLNKPEKDWTDDDRAREKVLMQELMTLIEQRDAIVNCLDEDRQREEEEDKMLETMIKKKDFQREAESDSKKKGKFKTMKVLKLLGNKRDAKSKAPTGKS
modifications: phosphorylated at S307
B2: Map4 pT899 (protein, UniProt Q5M7W5 2-1057, looked up)
Microtubule-associated …: ADLSLVDALTEPPPEIEGEIKRDFMAALEAEPYDDIVGETVEKTEFIPLLDGDEKSGNSESKRKPCVDTSQVEDIPSSKPTLLANGDHGVEGNNTTGSPTDFLVENVDYEDYQNSQSWPEDASFCFQPQQVLDTNQADPFNVHHDDGLADLLFVSSGPTNASAFIEENNPLEDSYGVLPCDSFAPTAVVSQEWSVGAPDSPHSEPCVSPEVTIETAQPATELSKAVDLESVKEQLPAKALEMMAGQTTDAVPSKESEGSPDTDAAPGPDTDVTLTKDIEESSSPDVISANVTQPFTESDMFLTQEMELLIGTEAAQVKDTMSSVEPDISSAKNTAPPTEEETVPGKDMTFPKEAETALPIEMDLAPPEDVALPKETELELAPAAGTAPLSETEVALAKDEEPSTGIPAAQEMLLSSETEVVLPSDSIMTLTKEVTVPLEAAGPLVSDMTAILETEMTLGGGTATPTETKLGKVKDMAPLPESEVALGKDVVTLPETKVTEFNNVTPLSEEEVASIKDVSPSPETETAKNADLHSGTELTLDNSMTPPSDPALPLETKVATVQIKDKETVQTQEELSEDSQLESVQLEGQSAVPPCTISPEPVKAADQKSTLPVDEGSPLEKLEQKETSGSQPPELCSGVSRQEEGKAAVGLTGNDIATPPNKELPPSPEKKAKPLATTQPAKTSTSKAKIQPTSLPKQPAPTTSGGLNKKPMSLASGSVPAAPHKRPAAATATARPSTLPARDLKPKPITETKVAEKRTSPSKPSSAPALRPGPKTTPTISKATSPSTLVSTGSSSRSPSTTLPKRPTTTKTEGKPADVKRMTAKSATADLSRSKTTSASSVKRNTTPTGATPPAGMASTRVKPMSAPCRSSVALSVDKKPTSTKPSSSAPRVSRLATTVSAPDLKSVRSKVGSTENMKHQPGGGRVQIQNKKVDISKVSSKCGSKANIKHKPGGGDVKIESQKLNFKEKAQAKVGSLDNVGHLPAGGTVKTEGGGSEAPPCPGPPAGEEPAIPEAAPDAGAPTSASGLSGHTTLSGGGDQREPQTLDSQIQETSI
modifications: phosphorylated at T899
B3: Ptrf pT304 (protein, UniProt P85125 1-392, looked up)
Caveolae-associated protein 1: MEDVTLHIVERPYSGYPDASSEGPEPTPGEARATEEPSGTGSDELIKSDQVNGVLVLSLLDKIIGAVDQIQLTQAQLEERQAEMEGAVQSIQGELSKLGKAHATTSNTVSKLLEKVRKVSVNVKTVRGSLERQAGQIKKLEVNEAELLRRRNFKVMIYQDEVKLPAKLSVSKSLKESEALPEKEGDELGEGERPEEDAAAIELSSDEAVEVEEVIEESRAERIKRSGLRRVDDFKKAFSKEKMEKTKVRTRENLEKTRLKTKENLEKTRHTLEKRMNKLGTRLVPVERREKLKTSRDKLRKSFTPDHVVYARSKTAVYKVPPFTFHVKKIREGEVEVLKATEMVEVGPDDDEVGAERGAETDLLRGSSPDVHTLLEITEESDAVLVDKSDSD
modifications: phosphorylated at T304
B4: Ptrf pS171 (protein, UniProt P85125 1-392, looked up)
Caveolae-associated protein 1: MEDVTLHIVERPYSGYPDASSEGPEPTPGEARATEEPSGTGSDELIKSDQVNGVLVLSLLDKIIGAVDQIQLTQAQLEERQAEMEGAVQSIQGELSKLGKAHATTSNTVSKLLEKVRKVSVNVKTVRGSLERQAGQIKKLEVNEAELLRRRNFKVMIYQDEVKLPAKLSVSKSLKESEALPEKEGDELGEGERPEEDAAAIELSSDEAVEVEEVIEESRAERIKRSGLRRVDDFKKAFSKEKMEKTKVRTRENLEKTRLKTKENLEKTRHTLEKRMNKLGTRLVPVERREKLKTSRDKLRKSFTPDHVVYARSKTAVYKVPPFTFHVKKIREGEVEVLKATEMVEVGPDDDEVGAERGAETDLLRGSSPDVHTLLEITEESDAVLVDKSDSD
modifications: phosphorylated at S171
B5: Ptrf pS169 (protein, UniProt P85125 1-392, looked up)
Caveolae-associated protein 1: MEDVTLHIVERPYSGYPDASSEGPEPTPGEARATEEPSGTGSDELIKSDQVNGVLVLSLLDKIIGAVDQIQLTQAQLEERQAEMEGAVQSIQGELSKLGKAHATTSNTVSKLLEKVRKVSVNVKTVRGSLERQAGQIKKLEVNEAELLRRRNFKVMIYQDEVKLPAKLSVSKSLKESEALPEKEGDELGEGERPEEDAAAIELSSDEAVEVEEVIEESRAERIKRSGLRRVDDFKKAFSKEKMEKTKVRTRENLEKTRLKTKENLEKTRHTLEKRMNKLGTRLVPVERREKLKTSRDKLRKSFTPDHVVYARSKTAVYKVPPFTFHVKKIREGEVEVLKATEMVEVGPDDDEVGAERGAETDLLRGSSPDVHTLLEITEESDAVLVDKSDSD
modifications: phosphorylated at S169
B6: Ptrf pS302 (protein, UniProt P85125 1-392, looked up)
Caveolae-associated protein 1: MEDVTLHIVERPYSGYPDASSEGPEPTPGEARATEEPSGTGSDELIKSDQVNGVLVLSLLDKIIGAVDQIQLTQAQLEERQAEMEGAVQSIQGELSKLGKAHATTSNTVSKLLEKVRKVSVNVKTVRGSLERQAGQIKKLEVNEAELLRRRNFKVMIYQDEVKLPAKLSVSKSLKESEALPEKEGDELGEGERPEEDAAAIELSSDEAVEVEEVIEESRAERIKRSGLRRVDDFKKAFSKEKMEKTKVRTRENLEKTRLKTKENLEKTRHTLEKRMNKLGTRLVPVERREKLKTSRDKLRKSFTPDHVVYARSKTAVYKVPPFTFHVKKIREGEVEVLKATEMVEVGPDDDEVGAERGAETDLLRGSSPDVHTLLEITEESDAVLVDKSDSD
modifications: phosphorylated at S302
B7: Mylk3 pS444 (protein, UniProt E9PT87 1-786, looked up)
Myosin light chain kinase 3: MSGVSEEDPEGLGPQGLPALGGACLVTVDKKLNVLTEKVDRLLHFQEDVTEKLQCVCQGMDHLEQGLHRLEASQELGLAGPGSTSPAAAQAAWPEVLELVRAVRQEGAQHGARLEALFKMVVAVDRAITLVGSTIQNSKVDDFILQGTVPWRKGSLADGPEENKEQAEVAGVKPKHVLNTGSVQAATSRALWEESQKQDTPVGTVEGLPLIIDTSLKGADLTQAGASLRQGVEALDPGQEPPPTEAESRLPALASEDTGTTLELSVAIDRISEVLTSLRMSQSAGEGTSSSKPDCSEPGPQPLGPLTTDSDIHSDEGLPRISVRMREMTTPEELFETQGGSPIGSAEAPGPGTVLEDQIPKGARPFPPLPKRSCNNGGASAEEATGPGAEPIRGPSLVTRDWRDEPVGTTDLQQGRDPGAVSPEPGKDHAAQGPGRTEAGRRVSSAAEAAIVVLDDSAAPPAPFEHRVVSIKDTLISTSYTVSQHEVLGGGRFGQVHRCTERSTGLALAAKIIKVKNIKDREDVKNEINIMNQLSHVNLIQLYDAFESKNSFTLIMEYVDGGELFDRITDEKYHLTELDVVLFTRQICEGVHYLHQHYILHLDLKPENILCVSQTGHQIKIIDFGLARRYKPREKLKVNFGTPEFLAPEVVNYEFVSFPTDMWSVGVITYMLLSGLSPFLGETDAETMNFIVNCSWDFDADTFKGLSEEAKDFVSRLLVKEKSCRMSATQCLKHEWLNHLIAKASGSNVRLRSQLLLQKYMAQRKWKKHFHVVTAVNRLRKFPTCP
modifications: phosphorylated at S444
B8: Serbp1 pS391 (protein, UniProt Q9CY58 1-407, looked up)
SERPINE1 mRNA-binding protein …: MPGHLQEGFGCVVTNRFDQLFDDESDPFEVLKAAENKKKEAGGGGVGGPGAKSAAQAAAQTNSNAAGKQLRKESQKDRKNPLPPSVGVADKKEETQPPVALKKEGIRRVGRRPDQQLQGDGKLIDRRAERRPPRERRFEKPLEEKGEGGEFSVDRPIIERPIRGRGGLGRGRGGRGRGMGRGDGFDSRGKREFDRHSGSDRSSFSHYSGLKHEDKRGGSGSHNWGTVKDELTESPKYIQKQISYNCSDLDQSNVTEETPEGEEHPVADTENKENEVEEVKEEGPKEMTLDEWKAIQNKDRAKVEFNIRKPNEGADGQWKKGFVLHKSKSEEAHAEDSVMDHHFRKPANDITSQLEINFGDLGRPGRGGRGGRGGRGRGGRPNRGSRTDKSSASAPDVDDPEAFPALA
modifications: phosphorylated S391
B9: Murc pS257 (protein, UniProt B1PRL5 1-362, looked up)
Caveolae-associated protein 4: MEHNGSASNAGKIHQNRLSSVTEDEDQDAALTIVTVLDRVATVVDSVQASQKRIEERHREMGNAIKSVQIDLLKLSQSHSNTGYVVNKLFEKTRKVSAHIKDVKARVEKQQVRVTKVETKQEEIMKKNKFRVVIFQEDVPCPASLSVVKDRSLPENEEEAEEVFDPPIDLSSDEEYYVEESRSARLRKSGKEHIDHIKKAFSKENMQKTRQNFDKKVSGIRTRIVTPERRERLRQSGERLRQSGERLRQSGERFKKSISNATPSKEAFKIRSLRKPKDPKAEGQEVDRGMGVDIISGSLALGPIHEFHSDGFSETEKEVTKVGYIPQEGGDPPTPEPLKVTFKPQVRVEDDESLLLELKQSS
modifications: phosphorylated at S257

Assays:
[1] = test system: PKGIα (analogue-sensitive C42S/M438G), cGMP-activated; test: Chemical genetic phosphoproteomic screen, cGMP-activated PKGIα C42S/M438G versus unactivated control; format: biochemical, human PKGIα; substrates in rat heart homogenate; conditions: control = PKGIα C42S/M438G
Method in brief: (§1)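 Analogue-sensitive human PKGIα mutants (M438G, air-oxidized to disulfide dimer; C42S/M438G, cGMP-activated), expressed in 293-F cells, thiophosphorylate substrates in rat left-ventricle lysate (20 mg ml) using N6-alkylated ATPγS. Thiophosphopeptides are recovered by covalent capture and identified with sites by LC–MS/MS, each compared against an unactivated control.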

[2] = test system: PKGIα (analogue-sensitive M438G), disulfide-activated; test: Chemical genetic phosphoproteomic screen, disulfide-activated PKGIα M438G versus unactivated control; format: biochemical, human PKGIα; substrates in rat heart homogenate; conditions: control = PKGIα C42S/M438G
Method in brief: as §1

Molecule | log2 fold change cGMP vs Control [1] | log2 fold change Disulfide vs Control [2]
B1 | 2.266 | 1.417
B2 | 3.693 | 1.73
B3 | 3.045 | 1.3031
B4 | 3.564 | -0.2713
B5 | 4.006 | 2.165
B6 | 3.161 | 1.32
B7 | 3.077 | 0.1624
B8 | 6.458 | 3.516
B9 | 1.807 | 0.9013
